From IntAct's records for PubMed 16278218

B1: Heat shock factor protein 1 (Homo sapiens), Q00613 (parent)
chain: MDLPVGPGAAGPSNVPAFLTKLWTLVSDPDTDALICWSPSGNSFHVFDQGQFAKEVLPKYFKHNNMASFVRQLNMYGFRKVVHIEQGGLVKPERDDTEFQHPCFLRGQEQLLENIKRKVTSVSTLKSEDIKIRQDSVTKLLTDVQLMKGKQECMDSKLLAMKHENEALWREVASLRQKHAQQQKVVNKLIQFLISLVQSNRILGVKRKIPLMLNDSGSAHSMPKYSRQFSLEHVHGSGPYSAPSPAYSSSSLYAPDAVASSGPIISDITELAPASPMASPGGSIDERPLSSSPLVRVKEEPPSPPQSPRVEEASPGRPSSVDTLLSPTALIDSILRESEPAPASVTALTDARGHTDTEGRPPSPPPTSTPEKCLSVACLDKNELSDHLDAMDSNLDNLQTMLSSHGFSVDTSALLDLFSPSVTVPDMSLPDLDSSLASIQELLSPQEPPRPPEAENSSPDSGKQLVHYTAQPLFLLDPGSVDTGSNDLPVLFELGEGSYFSEGDGFAEDPTISLLTGSEPPKAKDPTVS

Variants of: B1
Conditions: with mapk2_human MAPKAPK2, P49137
Chain of mapk2_human MAPKAPK2, P49137 (P49137 whole entry, looked up): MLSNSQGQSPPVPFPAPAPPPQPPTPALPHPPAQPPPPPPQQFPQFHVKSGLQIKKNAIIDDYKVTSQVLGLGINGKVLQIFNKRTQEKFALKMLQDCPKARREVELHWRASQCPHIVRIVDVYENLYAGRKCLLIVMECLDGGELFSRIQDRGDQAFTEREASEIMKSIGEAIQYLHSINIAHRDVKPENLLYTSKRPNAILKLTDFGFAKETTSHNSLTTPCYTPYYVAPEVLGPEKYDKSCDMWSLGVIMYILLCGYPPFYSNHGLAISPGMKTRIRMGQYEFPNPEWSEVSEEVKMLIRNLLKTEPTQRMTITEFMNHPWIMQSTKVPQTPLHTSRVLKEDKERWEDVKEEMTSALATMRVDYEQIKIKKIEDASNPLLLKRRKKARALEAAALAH

Variant | effect of a mutation on the interaction
S121A | increasing interaction
S121D | decreasing interaction
